Source: patent publication CN111138528A (INST MILITARY MEDICINE ACADEMY MILITARY SCIENCES PLA, dated 2020)

Molecular target: GPdM (Ebola virus (EBOV), UniProt Q05320 33-632)
Assay: ELISA, truncated GP coated, 5A8 titrated (method of Example 2)

B1: 单克隆抗体5A8 (antibody, V domains shown)
VH: EVQLLESGGGLVKPGGSLRLSCAASGFTFSDYYMNWIRQAPGKGLEWVSYISSSGKTIYYADSVKGRFTISRDNAKKSLYLQMNSLRAEDTAVYYCARDREIVISTTILLGSDHYAMDVWGQGTTVTVSS
VL: DIQMTQSPFTLSASVGDRVTITCRASQSINSYLNWYQQKPGKAPKLLIYSASSLQSGVPSRFSGSGSGTDFTLTISSLQPEDFAIYYCQQTYRTPYTFGQGTKVEIKT
  EC50: 8.2 ng/mL
